Experimental data taken from a protein production outcome set (Wang et al. 2014).

test: label from the status in PepcDB records

Sequence	protein production
MIFAFVFDRDYYSLGLVLLALFSAQSPYGGLSLEIYLKSCRIQQNYTRLNTMKLRLPHAPYVANKIALDLVSSGYIELGSNMEKISQIAKHFLEENIKKEAALEEKVRLLLEANLEEIEFLRVDERQFFWMAKKKLAEEEGFILAKDDRYSHLSHQILDELIKEEVIDFGVSDTIIKNVIFKAIDGYVKIYESIEDVVIEKIENYKRKIIAGTEEYDMVFEKLYEEELKKRGFL	failed
MIFKKEPKRYTVEDTIPYLRLLKSGICQLDEKHFSKSIAFQDINYQLALDEDRDLIFNQFANFLNSFDPSISIEFSYVNQLGRNEEMKSAIQIPDKKDGFDDIRFEFREMLKSQIVKGNNGLKKSKYVTFTVEADNLEQATSKLERLEIDILSNLKSMGVRAESLNGEERLKILHDVLNPNKTFEFSYKDLKKRESTKTYIVPDEFNFTPSRYFKFGKFIGATSHFQILASELSDRMLSEFLDIDDNINISFHIRAIDQSEAIKMVKRKNTDIDKMKIEENKKAVRSGYDMDILPSDLITYGEDVKSLLKDLQTRDERMFVVSIVFMNFARTVQKLDNTIAQISSIANKHNCKLKRLDHSQEQGLVSMLPLGVNKIEIDRGLTSSSTAVFMPFTTEELFINSSNSLYYGLNALSHNLIMADRKKLKNPNGLILGTPGSGKSFSAKREMANAILVTDDDVIICDPEGEYGNLVRQFKGEVIKVSSKSKDYLNPLDINMNYGDGDAPLKDKANFIMSMLELVVGGSGLTAEEKSVIDRCLPKIYEKYFEHPTPDNMPILQDLYDMLKGQEEKVGKKLATEMEIYVSGSLNVFNHRSNVDLNKKLLCFDIKELGSQLKKIGMLVIQDQVWNKVSQNRGNKATRYYIDEFHLLLKDEQTASYSVEIWKRFRKWGGIPTGITQNVKDLLMSKEIENIFDNTDFVLMLNQASGDREILARKLKISLPQLRYVTNSNEGEGLLFFGNTIVPFLDKFPKDTILYQKMTTKPEEVRLEHHHHHH	not failed
MIFLSTVLILCCTWYFLKFLAHFSRKIHDEVRKLSVYTHFLSKWLQSAPATFTYTAIFCAFTLVQRTAPQHLINILTNHSSTSIARVSDKPISTFFDSAFWVADNGAGLLIYVVLFWTVIAWAERKYGSPRMIVITLSGHILASLTTIFLELWAINSGRAPSSLAMATDVGVSYILVAGCAAAILIMRKRMFYIGLIILGLFILLPLFVEHSIWDMGHLFAAFFGFISARLLLKLSPVRTVSSPYELLLKCRSELSNK	failed
MIFMNMIFVDREKELQTLMQRLNSPTFELVIVYGRRRIGKTSLILRAISGRNDSVYYYATERNNLERFREVAQRKFPEVRYAREDWESLLHFLRDKVVIIDEFPYLIEEDKSILSTFQRIVDENRDSRTKLILLGSSISVMEDVLSYRSPLYGRRTASLKVGELKFRDLRHLGFSVEEAVKIYGFAGGVPMYLTRVTPPFLDWVNRELKRVDSFLRDEVDFLLRYEFREIGTYKEILRAISMGKNTLAEIRDYVKVGGEISSYIKKLERIELVTREVPVTESVRSKMGRYVIRDNFTNFWFRFVYPNLSLIEEGTYEITEGEYANYLGHVFERICREYVRDRYRVKKVGRQWWKDVEIDVMGLGNVKVAGECKWSEDVNPHSVLANLERKVERLGHTVDRYVVFARSFSTKEKMEKAELVDINDLNSWFMS	failed
MIFMQTSSYHSVTSVIFDKNTQNHTSIAIWLLICCALVFAMVVVGGVTRLTGSGLSIVEWKPIVGTIPPISQGDWEILLEKYRQIPQYEQINKGMTLDEFKGIFWWEYFHRLLGRLIGLVYFVPFVYFMVRKRVDRVLGTKLLGIFVLGGLQGLMGWYMVMSGLADNVYVSQYRLTAHLGLAFIIYAAMFWVATGLLSPVNTHSADPASVRKLGRFARILTGLIFFMVLSGGLVAGIHAGKAYNTFPLMDGFFIPPALFVLEPWYRNFFDNITTVQFDHRMIAWLLMFTIPLFWFKARQLSLSWSGRLACHLLLIMLCTQVALGITTLLLSVPLTFAAAHQAGAVLLFTAALWVCRKLS	failed
MIFVIFAKKSVRFPGKHSAMINGRRMIDIVASKLKNHGEVILYSKDPELNCDMCRVVRDTTDGIITDSVLSAMDRFGTFFAVAGDMPFITDRIIEKILSSYDGKPTFPVHADGLIEPLFGIYTDAIYDAMRDYIESGGESLIGFLSMADIDRVPIAEEEEKFFVSVNYPEDIKKYADLLTLEHHHHHH	failed
MIFVPIIGWLALFGYGVRLVNEFIEGRYEGPIKLDFMEDLKFGFMVFLKSLPFYIIYIIILFAAMYVSEGLGNIISLLLGFFVVPMLAVNFFRKQTVESFFEFSVLNVVRDNLGEYIITVLKQYALVIIFMVLSIVLVGIPGMLFTNSIFVANMYGRLVERKAEASL	failed
MIFWRLLQEFASTTIHGTKGICHADELIEKGQIDKAEQAVLTLLERKPNDANILHLAGVVALRKGQNSRAVALISKALEYAPNESLYYFNLGNAYLADGAIDLGIQALQDATRLDPERMEAWMNLGLALVEAKRHPEAVAAFERLLEIDPDHEADVAFASALVGAGIMLKESAMVDRGISVLESKLRDGYERYAAGVILARALEHRNRLSEAIRQHQALLEANPEHIGIRNNLARCLVQLGRVEEARTHYRLCVKSAPDKYHAFSALLAGLNYEPNLTAAMHEAEVRNWEKQLALPHYPVEPEFPNERDPERPLKIGYLSPDLRQHVVGHNFLPVLEHRNREQFSVFCYHIGEKQDDMSRRIAALADHWRHVHGASDDEVAALIREDRVDILVDLSGHTSHTQPLVFARKPAPVQVSWLGYFDTTGLATMDWFITDPYSSPPDQKQYFSERLYRMPHTRLYYHPYPDMPAVGQLPAKRNGYITFGCLNNLAKINTEVLDLWAQILAASPTSRLLIQTVALCDRLNLERFRALCVERGLDPARLELRPATSLEKFAQTYHQIDIALDPFPFCGGFTSFDALWMGVPVITLEQQRLAGRQTLSMLMNLGLPHLIASNKTDYVSIALELSRDSSEIEQLRSELRSRFLQSPLIDHCRFTRELEKAYRFFWSHWCTEKKQSSARKGISAPMDAYPSRRQISAT	failed
MIGAVIEAGVGITAALISLIEDKQNFLKKYEVSLIILPILVIFFHSMLIVPIYVFSIISGTYLYSKKFYYPFLLLFVSVFLIYIVYGINYPWKSTDIAISAGMIVVMVFDSREKEYVKQNEMNRGTDRKKEIRRDYVQILAGAVIILLIYYYGIDVSRILVTFGSLVLYVTGNFLAGRPDLLLGKLLNSLERSSTKLGIGSLWFASGILIAYSLHDSTAVVMMIVFSIAVGDSLATIIGTSVSSPKLPINRKKSAAGSIAFFAASAAFAIFVLGYAGLFYAAVATITEAVSGFPLDDNLTVPFILSILAYVSKML	failed
MIGITGVTGKLGSKVAQLISEQGISARHLARNPQRAALYDNAELVQVAFENSLEAVEALKGIDVLLMVSASESPNRLQQHFAFLDAAHEAGVKHIVYTSFYNAATEATFTLARDHAKTEKYIKERGFTYTFLRDNFYLDFFLDLCLNNGEIRGPAGNGKVSAVARQDVSEVATTILAKPDKWKNQLLNMTGPADLSMADIVHFVSEQKGEIIPYIDESIEEAYASRKAWPAQDWEYDAWVSTYTAIKEGKQAGVSSDIERVLGRPATSLEQLVKTIK	failed
MIGITQAEAVLTIELQRPERRNALNSQLVEELTQAIRKAGDGSARAIVLTGQGTAFCAGADLSGDAFAADYPDRLIELHKAMDASPMPVVGAINGPAIGAGLQLAMQCDLRVVAPDAFFQFPTSKYGLALDNWSIRRLSSLVGHGRARAMLLSAEKLTAEIALHTGMANRIGTLADAQAWAAEIARLAPLAIQHAKRVLNDDGAIEEAWPAHKELFDKAWGSQDVIEAQVARMEKRPPKFQGA	not failed
MIGKPRGRRGVNLQILPSAMTVLSICAGLTAIKFALEHQPKAAMALIAAAAILDGLDGRVARILDAQSRMGAEIDSLADAVNFGVTPALVLYVSMLSKWPVGWVVVLLYAVCVVLRLARYNALQDDGTQPAYAHEFFVGMPAPAGAVSMIGLLALKMQFGEGWWTSGWFLSFWVTGTSILLVSGIPMKKMHAVSVPPNYAAALLAVLAICAAAAVLAPYLLIWVIIIAYMCHIPFAVRSQRWLAQHPEVWDDKPKQRRAVRRASRRAHPYRPSMARLGLRKPGRRL	failed
MIGNPVIQVPSSLMPSSSMIACPRVSPNGVPYLPPKPRTRHLVVRAASNSDAAHGQPSSDGGKNPLTVVLDVPRNIWRQTLKPLSDFGFGKRSIWEGGVGLFIVSGATLLALSWAWLRGFQMRSKFRKYQTVFELSHASGICTGTPVRIRGVTVGTIIRVNPSLKNIEAVAEIEDDKIIIPRNSLVEVNQSGLLMETMIDIMPRNPIPEPSVGPLHPECGKEGLIVCDRQTIKGVQGVSLDELVGIFTRIGREVEAIGVANTYSLAERAASVIEEARPLLKKIQAMAEDAQPLLSEFRDSGLLKEVECLTRSLTQASDDLRKVNSSIMTPENTELIQKSIYTLVYTLKNVESISSDILGFTGDEATRKNLKLLIKSLSRLL	failed
MIGRHHPILAWAAVVAIGGGVIVLGGIGLPGAGDWLSDWTRAITSRQAGFHRELGQAVRDLAGEGGGAAGVGLLIASLGYGVFHALGPGHGKAVIGAYAATTATGFRRAALLSLAAALIQATTAVVLVDGAFLVMRGGAHWANRTAERWLEPASYAAILGLGLYLGGRGLLAIVRAGRPSPGGDHRPTHPGQARDEEACAHCGHAHGPTADQVAKATEWRSAAMIALAVGIRPCSGAILVLVVANGLGLWAAGILAAYVMALGTAATVALLAVGARASRLPIAGLARRLPLSPALLGGLAGTLAGLILVVLAGLLLRASLLAPVHPLLG	failed
MIGSTSDGLVPGNTDMPATPTTALTALRTPHPPTGGESMHPRTRTAPALLFAVCLTALAAYPAAADDPVPTTERVSVTLDGAQIDDPSYRPQLTSKGGVVYTSDGPVWSTDHNGVSDAYRNSERVSYNMGAARSYDPSACHTARMIAFVSDRTPAGGTTPSVYVRNTPVGKLSYASHGYQGVPFTWAGQPAMSADCQWMAFSATLPATPDHVEQPRVYRYRIYDGTIEQVSPDSADGSRAAVRPSISADGRYVAYQSSIPHPGGPANDSDIYVRDLETGTLEKASVGRHGRPADRASTGPSLSADGRHVAFDSYASNLAPGDTNGTVNVFVRDLDAGTTRLVKGAGRHAYTAEAALSGDGLHLAYVSAGIRGSRGVPAVYLRDLATGRTRLISVDTRGHRNDRAAGNPSVNPDGTAVAFDSASPDLVPGDTNGTVDVFLRRLGSPEALEHHHHHH	not failed
MIIFFLLIIIFLITALLFLLIKELHLSTASNYIMTIFLSLIILFIILKPEVCISASISGAKLFFFSVFPYVFPFLIITNLIICYDGIEIYSKLLGPILCLPQRLPKKASIVLMVSFLCGYPLGAKYAADLYENDIISFSTFERLVNIASNPGPLFIIGAVGTSMLKNKYLGYILLISCYLSCIAMGIILPNKKDDFSTKKTKWNVSEKHSIGTALKTSTENAVKVILQVMSFIIIFSVIIGILKQSVIFKNSEASFIKTFILGIVEMTNGSSMLSSSSFPIELKVITISFLSSFGGLCVIAQIYSFIGKYKISYLKFISLKVIQGVISSIICFLLFKFLYVNNTISTFNANNNFLSPSHFFTVAVILAVLPILIYKIKKTI	failed
MIIPKMSRHALIGGGTGFIGRNLANHLTKKGYDVTVISRMPGAKRITWHELEKNGIPGSVNAVVNATGQNTLDPTRRWTPGFQQNVWNSRINSSKTLAQAIKSAPQVSSFVNLCGVSHYKPSESKVYTEEDQVQGFDYMSRLCLAWEEAAHTGSEQDCKTTILRCGAVVGHGGGMVQSMWLPFKFGVGGPLGNGNQIMPWIHLHDLCSLIQYIIEKPVPGVVNAVAPEITSNLEFSKAFAKALHRPCIFGVPEFVVQAIFGPERAALVLSGAKVKPQKALSSGFKFQYPSVKEAVTQLTLKG	failed
